How the values were obtained:
[1] = molecular target: T1, TRCP VLP (virus-like particle of GFLV CP fused at its N-terminus to TagRFP) (Grapevine fanleaf virus isolate F13 (CP …)); assay: dynamic light scattering; TRCP VLP alone 32.0 nm±2 nm
T1 construct: also called TRCP VLPs; VLP-TRCP

[2] = molecular target: T1, TRCP VLP (virus-like particle of GFLV …); assay: microscale thermophoresis in solution, fluorescent TRCP VLP constant, nanobody titrated, 1:1 model, n=3; SD ±2.91
[3] = molecular target: T2, Grapevine fanleaf virus (GFLV) isolate F13 particles (capsid made of the coat protein, CP) (Grapevine fanleaf virus isolate F13, UniProt P18474 606-1109); assay: competitive ELISA on coated GFLV, legend of FIG. 19a
T2 sequence: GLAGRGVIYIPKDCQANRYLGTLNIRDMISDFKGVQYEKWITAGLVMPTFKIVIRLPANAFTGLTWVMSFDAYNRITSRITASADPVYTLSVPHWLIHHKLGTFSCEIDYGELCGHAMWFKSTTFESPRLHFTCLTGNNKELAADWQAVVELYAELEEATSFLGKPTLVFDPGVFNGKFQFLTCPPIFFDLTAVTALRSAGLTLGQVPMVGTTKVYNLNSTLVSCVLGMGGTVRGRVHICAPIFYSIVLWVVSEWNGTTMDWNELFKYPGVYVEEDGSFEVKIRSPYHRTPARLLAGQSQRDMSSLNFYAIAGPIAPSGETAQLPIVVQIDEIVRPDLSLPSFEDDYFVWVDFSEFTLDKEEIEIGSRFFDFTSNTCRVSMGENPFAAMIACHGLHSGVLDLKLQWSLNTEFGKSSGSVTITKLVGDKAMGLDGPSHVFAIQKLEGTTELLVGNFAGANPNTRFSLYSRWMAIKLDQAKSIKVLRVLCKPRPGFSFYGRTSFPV

[4] = molecular target: T2, Grapevine fanleaf virus (GFLV) isolate …; assay: DAS-ELISA on infected leaves, capture by Ab BIOREBA, detection by Nb:ALP
[5] = molecular target: T1, TRCP VLP (virus-like particle of GFLV …); assay: microscale thermophoresis in solution, fluorescent TRCP VLP constant, nanobody titrated, 1:1 model, n=3; SD ±3.37
[6] = molecular target: T2, Grapevine fanleaf virus (GFLV) isolate …; assay: DAS-ELISA on infected leaves, capture Ab Bioreba, detection Nbp75:ALP
[7] = molecular target: T2, Grapevine fanleaf virus (GFLV) isolate …
[8] = molecular target: T1, TRCP VLP (virus-like particle of GFLV …); assay: microscale thermophoresis in solution, fluorescent TRCP VLP constant, nanobody titrated, 1:1 model, n=3; SD ±13.63

B1: Nanobody Nb23 (VHH)
VHH: QVQLQESGGGSVQVGGSLRVACAASGDTFSGYLAAWFRQAPGKGREGVAAINSKRHTTSYADSVKGRFTISKDNADNIMYLEMNSLKPEDTAIYYCAAADAIGLAEYWSTPTLSAARYKYWGQGTQVTVSS
B1 was tested, and the “particle diameter of the VLP saturated with the nanobody (DLS)” value (shortened to “particle diameter of the VLP saturated”) [1] was 37.8 nm and the Kd [2] was 9.13 nM.

B2: Nb23 fused to EGFP (VHH)
VHH: B1 VHH
For B2, the “particle diameter of the VLP saturated” value [1] was 43.8 nm.

B3: Strep-tagged Nb125 (VHH)
VHH: QVQLQESGGGSVQAGGSLRLSCAASGYTYSMYCMAWFRQAPGKEREGVAAINSGNRSTYYADSVKGRFTISQDNAKNTVYLIMNSLKPEDTAIYYCAADPQRCGSWTWANMYEYNYWGQGTQVTVSS
B3: binds [3].

B4: Nbp59 fused to alkaline phosphatase (VHH)
VHH: QVQLQESGGGTVQAGGSLRLSCSISGDTSNSYCMGWFRQAPGKEREVVAHISTGVISPGYNKFSEGRFTISPDNAKNSVYLQMNNLKPDDTAMYYCAARTGYCSGSWGVADSFNGWGQGTQVTVSS
B4: binds [4].

B5: Strep-tagged Nbp59 (VHH)
VHH: B4 VHH
B5: binds [3].

B6: Nanobody Nbp59 (VHH)
VHH: B4 VHH
Work on B6 yielded a Kd [5] of 12.6 nM.

B7: Strep-tagged Nbp75 (VHH)
VHH: QVQLQESGGGSVQAGGSLRLSCVASEYPSSSTAMAWFRQAPGKEREGVAAINSVRHTTSYADSVKGRFTISKDNADNMMYLEMNSLKPEDTAIYYCAAADAIGLAEYWSTPTLSAARYKYWGQGTQVTVSS
B7: binds [3].

B8: Nbp75 fused to alkaline phosphatase (VHH)
VHH: B7 VHH
B8: binds [6].

B9: Nb122 fused to alkaline phosphatase (VHH)
chain: MAQVQLQESGGGSVQGGGSLRLSCAVSGYRFSSYAMAWFRQAPGKEREAVAAYYRGFGGAQHSTHYAASVTGRFTITQNDALNTGYLQMNNLKPEDTAMYYCALSTADDDDWHSLRRYNYWGQGTQVTVSSGGGSGGGVKQSTIALALLPLLFTPVTKARTPEMPLQTQATSREEPPRLPSKHRPGVKTQATSREEPPRLPSKHRPGVKTQATSREEPPRLPSKHRPGVKTQATSREEPPRLPSKHRPGVKTQATSLEVLENRAAQGDITAPGGARRLTGDQTAALRDSLSDKPAKNIILLIGDGMGDSEITAARNYAEGAGGFFKGIDALPLTGQYTHYALNKKTGKPDYVTDSAASATAWSTGVKTYNGALGVDIHEKDHPTILEMAKAAGLATGNVSTAELQDATPAALVAHVTSRKCYGPSATSEKCPGNALEKGGKGSITEQLLNARADVTLGGGAKTFAETATAGEWQGKTLREQAQARGYQLVSDAASLNSVTEANQQKPLLGLFADGNMPVRWLGPKATYHGNIDKPAVTCTPNPQRNDSVPTLAQMTDKAIELLSKNEKGFFLQVEGASIDKQDHAANPCGQIGETVDLDEAVQRALEFAKKEGNTLVIVTADHAHASQIVAPDTKAPGLTQALNTKDGAVMVMSYGNSEEDSQEHTGSQLRIAAYGPHAAHHHHHH
For B9, the “EC50 (read off the curve)” value [7] was ~10000 nM.

B10: Nanobody Nb122 (VHH)
VHH: QVQLQESGGGSVQGGGSLRLSCAVSGYRFSSYAMAWFRQAPGKEREAVAAYYRGFGGAQHSTHYAASVTGRFTITQNDALNTGYLQMNNLKPEDTAMYYCALSTADDDDWHSLRRYNYWGQGTQVTVSS
B10 gave a Kd [8] of 34.5 nM.

B11: Strep-tagged Nb122 (VHH)
VHH: B10 VHH
B11: binds [3].

B12: Nb23 fused to bacterial alkaline phosphatase (VHH)
chain: QVQLQESGGGSVQVGGSLRVACAASGDTFSGYLAAWFRQAPGKGREGVAAINSKRHTTSYADSVKGRFTISKDNADNIMYLEMNSLKPEDTAIYYCAAADAIGLAEYWSTPTLSAARYKYWGQGTQVTVSSGGGSGGGVKQSTIALALLPLLFTPVTKARTPEMPLQTQATSREEPPRLPSKHRPGVKTQATSREEPPRLPSKHRPGVKTQATSREEPPRLPSKHRPGVKTQATSREEPPRLPSKHRPGVKTQATSLEVLENRAAQGDITAPGGARRLTGDQTAALRDSLSDKPAKNIILLIGDGMGDSEITAARNYAEGAGGFFKGIDALPLTGQYTHYALNKKTGKPDYVTDSAASATAWSTGVKTYNGALGVDIHEKDHPTILEMAKAAGLATGNVSTAELQDATPAALVAHVTSRKCYGPSATSEKCPGNALEKGGKGSITEQLLNARADVTLGGGAKTFAETATAGEWQGKTLREQAQARGYQLVSDAASLNSVTEANQQKPLLGLFADGNMPVRWLGPKATYHGNIDKPAVTCTPNPQRNDSVPTLAQMTDKAIELLSKNEKGFFLQVEGASIDKQDHAANPCGQIGETVDLDEAVQRALEFAKKEGNTLVIVTADHAHASQIVAPDTKAPGLTQALNTKDGAVMVMSYGNSEEDSQEHTGSQLRIAAYGPHAAHHHHHH
With B12 the “particle diameter of the VLP saturated” value [1] was 40 nm.

From US20200048649A1 (CENTRE NATIONAL DE LA RECHERCHE SCIENTIFIQUE, published 2020)
